Measured values as given in paper doi:10.1101/305292.

Biological target: GFP-tagged epidermal growth factor receptor (EGFR-GFP) (human) (UniProt P00533)
Assay: dual-colour single-molecule TIRF colocalisation with step-wise photobleaching

percent of EGFR foci colocalised with EGF, across 60 min: 40%
percent of all EGFR molecules in foci colocalised with EGF: 64%
Substance: tetramethylrhodamine-labelled epidermal growth factor (EGF-TMR) (ligand)
